According to US8822407B2, “Preparation of conjugates comprising adenine derivatives and allergenic proteins and their use for specific immunotherapy of allengenic diseases” (Universita' Degli Studi di Firenze, priority 2010, dated 2014):

Experiments:
[1] = test system: purified CD14+ cells; experiment: Cytokine production by purified CD14+ cells (ELISA of supernatants, 36 hrs); type: cell-based, human; details: for IL-6 production / IL-10 production / IL-12p40 production / TNF-alfa production: Table E
Procedure: Circulating mononuclear cells (MNC) are isolated by density gradient (Ficoll-Hypaque) using buffy coats from 14 normal donors (Servizio Immunotrasfusionale e terapie cellulari, Azienda Ospedaliera Universitaria A. Meyer, Firenze). 200×10^6 MNC are separated by the use of a commercial kit (CD14 isolation kit, Miltenyi) by the addition of 400 μl anti-CD14 monoclonal antibody bound to iron beads followed by isolation on magnetic columns (LS column). 50×10^6 monocytes are recovered by positive selection and are extensively washed with calcium and magnesium-free sterile PBS and then seeded in complete medium plus 10% foetal calf serum in 24 flat bottomed plates at the concentration of 1×10^6/ml. […] The plates are incubated for 36 hrs at 37° C. in 5% CO2 humidified atmosphere and the supernatants are collected after centrifugation at 1200 rpm, aliquoted and then stored at −20° C. up to the assay. […]
(§1) For the determination of cytokines and chemokines of the innate immunity, commercial ELISAs have been used: IL-12p40 (Cytoscreen, Biosource Int, Camarillo, Calif.), IFN-alfa (Cytoscreen), TNF-alfa (Cytoscreen), IL-10 (Pharmingen), IL-6 and CXCL10 (R&D System). 100 μl/well of single supernatants are incubated in flat bottomed plates as specified by the productors and the amounts of the single cytokines are expressed as pg/ml on the basis of a reference curve by using recombinant cytokines.

[2] = test system: purified BDCA4+ cells; experiment: Cytokine production by purified BDCA4+ cells (plasmacytoid dendritic cells), ELISA; type: cell-based, human; details: for IFN-alfa production / IL-6 production / IL-10 production / TNF-alfa production: Table F
Procedure: The preparation of purified BDCA4+ cells has been obtained in a similar way starting from MNC of buffy coats of the same 14 healthy donors. […] By positive selection 5×10^6 plasmacytoid dendritic cells (PDCs) are recovered, extensively washed with calcium and magnesium-free sterile PBS and seeded in complete medium plus 10% foetal calf serum in 24-flat bottomed plates at the concentration 1×10^6/ml. […] The plates are incubated for 36 hrs at 37° C. in 5% CO2 humidified atmosphere and the supernatants are collected after centrifugation at 1200 rpm, aliquoted and then stored at −20° C. up to the assay. […]
as §1

[3] = target: T1, human TLR7 (Homo sapiens, UniProt Q9NYK1); experiment: TLR7 activation, NF-kB luciferase reporter in transfected HEK293 cells; type: cell-based; details: human TLR7-encoding plasmid
T1 construct: expressed in transfected cells; host or cells: HEK293 (transient Nucleofection, Amaxa)
T1 sequence (Q9NYK1 27-1049): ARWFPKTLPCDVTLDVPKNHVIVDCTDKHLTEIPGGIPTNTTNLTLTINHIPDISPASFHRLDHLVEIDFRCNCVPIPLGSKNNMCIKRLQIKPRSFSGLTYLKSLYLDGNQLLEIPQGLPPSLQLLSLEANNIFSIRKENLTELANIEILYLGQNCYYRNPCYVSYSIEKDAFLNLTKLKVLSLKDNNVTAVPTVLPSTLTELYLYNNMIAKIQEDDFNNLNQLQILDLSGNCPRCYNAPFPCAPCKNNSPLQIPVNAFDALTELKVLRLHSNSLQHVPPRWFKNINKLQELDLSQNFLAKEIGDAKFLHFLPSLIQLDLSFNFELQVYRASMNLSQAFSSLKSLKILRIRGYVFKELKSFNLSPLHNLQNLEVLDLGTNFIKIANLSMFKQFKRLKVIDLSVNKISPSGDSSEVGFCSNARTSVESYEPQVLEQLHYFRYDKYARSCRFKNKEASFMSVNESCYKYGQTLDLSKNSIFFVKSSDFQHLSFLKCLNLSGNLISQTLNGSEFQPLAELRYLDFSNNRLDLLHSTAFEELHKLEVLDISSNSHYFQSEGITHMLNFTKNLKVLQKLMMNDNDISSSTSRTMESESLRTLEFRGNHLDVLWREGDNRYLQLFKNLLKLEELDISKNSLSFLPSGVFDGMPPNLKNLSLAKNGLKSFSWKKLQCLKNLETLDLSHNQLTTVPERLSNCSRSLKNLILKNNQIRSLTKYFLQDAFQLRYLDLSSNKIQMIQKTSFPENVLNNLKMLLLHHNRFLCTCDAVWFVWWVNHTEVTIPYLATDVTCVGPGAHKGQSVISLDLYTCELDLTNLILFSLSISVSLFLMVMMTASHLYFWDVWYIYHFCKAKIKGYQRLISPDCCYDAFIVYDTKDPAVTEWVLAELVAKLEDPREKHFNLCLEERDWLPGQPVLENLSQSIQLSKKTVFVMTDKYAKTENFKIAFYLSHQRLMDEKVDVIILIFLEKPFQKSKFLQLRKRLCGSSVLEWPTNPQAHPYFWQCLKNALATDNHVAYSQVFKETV
Procedure: HEK293 cells are detached by trypsin from the plastic surface of the culture bottle, extensively washed with calcium and magnesium-free PBS, counted and adjusted at the concentration 1×10^6 cells/tube in polypropylene V-bottomed tubes. After the final wash, the cells are pelleted and 100 μl transfection buffer (Amaxa) is added together with […], TLR7, TLR8 or TLR9-encoding and ELAM-1 promoter NF-kB luciferase reporter plasmids. The mixture thus obtained is transferred in special cuvettes and transient transfection is obtained in a special apparatus which is able to directly introduce genetic material into the nucleus (Nucleofection®, Amaxa GmbH). The cells are then recovered and cultured at 1×10^5/ml in 48-flat bottomed plates in E-MEM medium plus 5% foetal calf serum for 18 hrs. […] Finally the luciferase activity is measured in the cellular lysates by a commercial kit (Promega).

TLR7 activation (NF-κB luciferase) in transfected HEK293 cells [3]: lack any activity
B1: nDer p2: purified natural allergen Der p2, major allergen from the house dust mite Dermatophagoides pteronyssinus (protein, UniProt P49278 18-146, looked up)
Mite group 2 allergen Der p 2: DQVDVKDCANHEIKKVLVPGCHGSEPCIIHRGKPFQLEAVFEANQNTKTAKIEIKASIDGLEVDVPGIDPNACHYMKCPLVKGQQYDIKYTWNVPKIAPKSENVVVTVKVMGDDGVLACAIATHAKIRD
modifications: natural purified
notes: purified natural allergen Der p2, major allergen from the house dust mite Dermatophagoides pteronyssinus
IL-6 production (mean ± SE) ([1]; Table B, dose 10 μg/ml): 0 ± 0 ng/mL | IL-10 production (mean ± SE) ([1]; Table B, dose 10 μg/ml): 0.4 ± 0.4 ng/mL | IL-12p40 production (mean ± SE) ([1]; Table B, dose 10 μg/ml): 0 ± 0 ng/mL | TNF-alfa production (mean ± SE) ([1]; Table B, dose 10 μg/ml): 0.05 ± 0.06 ng/mL | IL-6 production ([1]; Donor #1, dose 10 μg/ml): 0 pg/mL | IL-10 production ([1]; Donor #1, dose 10 μg/ml): 0 pg/mL | IL-12p40 production ([1]; Donor #1, dose 10 μg/ml): 0 pg/mL | TNF-alfa production ([1]; Donor #1, dose 10 μg/ml): 218 pg/mL | IL-6 production ([1]; Donor #2, dose 10 μg/ml): 0 pg/mL | IL-10 production ([1]; Donor #2, dose 10 μg/ml): 0 pg/mL | IL-12p40 production ([1]; Donor #2, dose 10 μg/ml): 0 pg/mL | TNF-alfa production ([1]; Donor #2, dose 10 μg/ml): 0 pg/mL | cytokine production from purified CD14+ cells (in words) ([1]; text to Tables A and B): essentially unable to induce the production of valuable cytokines | IFN-alfa production (mean ± SE) ([2]; Table D, dose 10 μg/ml): 0.07 ± 0.06 ng/mL | IL-6 production (mean ± SE) ([2]; Table D, dose 10 μg/ml): 0 ± 0 ng/mL | IL-10 production (mean ± SE) ([2]; Table D, dose 10 μg/ml): 0 ± 0 ng/mL | TNF-alfa production (mean ± SE) ([2]; Table D, dose 10 μg/ml): 0.03 ± 0.02 ng/mL | IFN-alfa production ([2]; Donor #1, dose 10 μg/ml): 0 pg/mL | IL-6 production ([2]; Donor #1, dose 10 μg/ml): 0 pg/mL | IL-10 production ([2]; Donor #1, dose 10 μg/ml): 0 pg/mL | TNF-alfa production ([2]; Donor #1, dose 10 μg/ml): 0 pg/mL | IFN-alfa production ([2]; Donor #2, dose 10 μg/ml): 0 pg/mL | IL-6 production ([2]; Donor #2, dose 10 μg/ml): 0 pg/mL | IL-10 production ([2]; Donor #2, dose 10 μg/ml): 0 pg/mL | TNF-alfa production ([2]; Donor #2, dose 10 μg/ml): 0 pg/mL
